Measured values taken from patent US20040018971A1 (published 2004).
Where no end group is shown, it is not given here. [ ]: non-standard residue; d: D form. Abu = CC[C@H](N)C(=O)O

What was measured:
[1] = biological target: T1, HLA-A*0301 (purified HLA class I molecule) (human); test: inhibition of 125I probe peptide binding to purified HLA; ratio to standard peptide; minus sign not explained
T1 construct: also called A3

[2] = biological target: HLA-A*1101 (purified HLA class I molecule) (human); test: as above
[3] = biological target: T1, HLA-A*0301 (purified HLA class I …); test: inhibition of 125I probe peptide binding to purified HLA; ratio to standard peptide
[4] = biological target: HLA-A*1101 (purified HLA class I molecule) (human); test: as above
[5] = biological target: HLA-A*3101 (purified HLA class I molecule) (human); test: as above
[6] = biological target: HLA-A*3301 (purified HLA class I molecule) (human); test: as above
[7] = biological target: HLA-A*6801 (purified HLA class I molecule) (human); test: as above
HLA-A*0201 = biological target: T2, HLA-A*0201 (human); test: competition with 125I-labelled probe peptide for purified HLA, gel filtration
T2 construct: also called HLA-A2.1

HLA-A*0202 = HLA-A*0202 (human); test: as above
HLA-A*0203 = HLA-A*0203 (human); test: as above
HLA-A*0206 = HLA-A*0206 (human); test: as above
HLA-A*6802 = HLA-A*6802 (human); test: as above
[8] = biological target: HLA-DR1 (DRB1*0101), purified HLA class II molecule (human); test: competition with 125I-labelled probe peptide, purified HLA-DR
[9] = biological target: HLA-DR4w4 (DRB1*0401), purified HLA class II molecule (human); test: as above
[10] = biological target: HLA-DR7 (DRB1*0701), purified HLA class II molecule (human); test: as above
[11] = biological target: HLA-DR3 (DRB1*0301), purified HLA class II molecule (human); test: as above
HLA-DRB1*0101 = biological target: T3, HLA-DRB1*0101 (human); test: competition with 125I-labeled standard peptide, purified HLA-DR, gel filtration
T3 construct: also called DR1

HLA-DRB1*0401 = biological target: T4, HLA-DRB1*0401 (human); test: as above
T4 construct: also called DR4w4

HLA-DRB1*0701 = biological target: T5, HLA-DRB1*0701 (human); test: as above
T5 construct: also called DR7

HLA-DR1 (DRB1*0101) = HLA-DR1 (DRB1*0101) (human); test: competition with 125I-labelled probe peptide on purified HLA-DR, gel filtration; IC50 of standard peptide / IC50 of test peptide
HLA-DR4w4 (DRB1*0401) = biological target: T6, HLA-DR4w4 (DRB1*0401) (human); test: as above
T6 construct: Purified HLA class II molecule

HLA-DR7 (DRB1*0701) = biological target: T7, HLA-DR7 (DRB1*0701) (human); test: as above
T7 construct: Purified HLA class II molecule

HLA-DR3 (DRB1*0301) = biological target: T8, HLA-DR3 (DRB1*0301) (human); test: as above
T8 construct: Purified HLA class II molecule

B1: HER2/neu peptide, position 346, 9 amino acids (peptide)
peptide: GMEHLREVR
notes: also called Her2/neu.346 (9-mer)
[1]
  relative binding ratio: -0.0002 ratio (IC50 standard / IC50 test)
[2]
  relative binding ratio: -0.0002 ratio (IC50 standard / IC50 test)

B2: HER2/neu peptide, position 607, 9 amino acids (peptide)
peptide: DLSYMPIWK
notes: also called Her2/neu.607 (9-mer)
[3]
  relative binding ratio: 0.0005 ratio (IC50 standard / IC50 test)
[4]
  relative binding ratio: 0.01 ratio (IC50 standard / IC50 test)
[5]
  relative binding ratio: 0.0002 ratio (IC50 standard / IC50 test)
[6]
  relative binding ratio: 0.088 ratio (IC50 standard / IC50 test)
[7]
  relative binding ratio: 0.031 ratio (IC50 standard / IC50 test)

B3: Her2/neu.952L2B7V10 (peptide)
peptide: YLIMVK[Abu]WMV
notes: also called YLIMVKBWMV
HLA-A*0201
  IC50: 7.2 nM
HLA-A*0202
  IC50: 66 nM
HLA-A*0203
  IC50: 77 nM
HLA-A*0206
  IC50: 11 nM
HLA-A*6802
  IC50: 851 nM

B4: HER2/neu peptide, position 596, 10 amino acids (peptide)
peptide: CVARCPSGVK
notes: also called Her2/neu.596 (10-mer)
[3]
  relative binding ratio: 0.022 ratio (IC50 standard / IC50 test)
[4]
  relative binding ratio: 0.0042 ratio (IC50 standard / IC50 test)
[5]
  relative binding ratio: 0.0008 ratio (IC50 standard / IC50 test)
[6]
  relative binding ratio: 0.0064 ratio (IC50 standard / IC50 test)
[7]
  relative binding ratio: 0.0093 ratio (IC50 standard / IC50 test)

B5: Her2/neu.653.L2V9 (peptide)
peptide: SLISAVVGV
HLA-A*0201
  IC50: 7.1 nM
HLA-A*0202
  IC50: 10 nM
HLA-A*0203
  IC50: 16 nM
HLA-A*0206
  IC50: 20 nM
HLA-A*6802
  IC50: 110 nM

B6: HER2/neu DR supermotif exemplary 15-mer VEPLTPSGAMPNQAQ (position 697) (peptide)
peptide: VEPLTPSGAMPNQAQ
notes: also called Her2/neu.697
[8]
  relative binding ratio: -0.0008 ratio (IC50 standard / IC50 test)
[9]
  relative binding ratio: -0.0025 ratio (IC50 standard / IC50 test)
[10]
  relative binding ratio: -0.0011 ratio (IC50 standard / IC50 test)

B7: HER2/neu DR supermotif exemplary 15-mer TAPLQPEQLQVFETL (position 389) (peptide)
peptide: TAPLQPEQLQVFETL
notes: also called Her2/neu.389
[11]
  relative binding ratio: 0.0023 ratio (IC50 standard / IC50 test)

B8: HER2/neu DR supermotif exemplary peptide QGFFCPDPAPGAGGM (position 1028) (peptide)
peptide: QGFFCPDPAPGAGGM
notes: synthetic 15-mer; also called Her2/neu.1028
HLA-DRB1*0101
  relative binding ratio: -0.0005 ratio (standard IC50 / test IC50)
HLA-DRB1*0401
  relative binding ratio: 0.023 ratio (standard IC50 / test IC50)
HLA-DRB1*0701
  relative binding ratio: -0.0011 ratio (standard IC50 / test IC50)

B9: HER2/neu peptide, position 528, 9 amino acids (peptide)
peptide: CVNCSQFLR
notes: also called Her2/neu.528
[3]
  relative binding ratio: 0.0015 ratio (IC50 standard / IC50 test)
[4]
  relative binding ratio: 0.031 ratio (IC50 standard / IC50 test)
[5]
  relative binding ratio: 0.53 ratio (IC50 standard / IC50 test)
[6]
  relative binding ratio: 0.58 ratio (IC50 standard / IC50 test)
[7]
  relative binding ratio: 0.44 ratio (IC50 standard / IC50 test)

B10: HER2/neu peptide DMKLRLPASPETHLD (position 30) (peptide)
peptide: DMKLRLPASPETHLD
notes: also called Her2/neu.30
HLA-DR1 (DRB1*0101)
  relative binding ratio: 0.001 ratio
HLA-DR4w4 (DRB1*0401)
  relative binding ratio: -0.0025 ratio
HLA-DR7 (DRB1*0701)
  relative binding ratio: -0.0013 ratio

B11: HER2/neu peptide DLTLGLEPSEEEAPR (position 1058) (peptide)
peptide: DLTLGLEPSEEEAPR
notes: also called Her2/neu.1058
HLA-DR3 (DRB1*0301)
  relative binding ratio: -0.0025 ratio

B12: HER2/neu peptide, position 962, 9 amino acids (peptide)
peptide: DSECRPRFR
notes: also called Her2/neu.962 (9-mer)
[1]
  relative binding ratio: -0.0002 ratio (IC50 standard / IC50 test)
[2]
  relative binding ratio: -0.0002 ratio (IC50 standard / IC50 test)

B13: HER2/neu peptide AIKVLRENTSPKANK (position 751) (peptide)
peptide: AIKVLRENTSPKANK
notes: also called Her2/neu.751
HLA-DR3 (DRB1*0301)
  relative binding ratio: 0.0075 ratio

B14: HER2/neu DR supermotif exemplary 15-mer VVGILLVVVLGVVFG (position 658) (peptide)
peptide: VVGILLVVVLGVVFG
notes: also called Her2/neu.658
[8]
  relative binding ratio: -0.0004 ratio (IC50 standard / IC50 test)
[9]
  relative binding ratio: -0.0025 ratio (IC50 standard / IC50 test)
[10]
  relative binding ratio: -0.0013 ratio (IC50 standard / IC50 test)

B15: HER2/neu peptide FVVIQNEDLGPASPL (position 986) (peptide)
peptide: FVVIQNEDLGPASPL
notes: also called Her2/neu.986
HLA-DR3 (DRB1*0301)
  relative binding ratio: -0.0025 ratio

B16: HER2/neu DR supermotif exemplary 15-mer VHTVPWDQLFRNPHQ (position 477) (peptide)
peptide: VHTVPWDQLFRNPHQ
notes: also called Her2/neu.477
[11]
  relative binding ratio: 0.022 ratio (IC50 standard / IC50 test)

B17: HER2/neu DR supermotif exemplary peptide PSTFKGTPTAENPEY (position 1234) (peptide)
peptide: PSTFKGTPTAENPEY
notes: synthetic 15-mer; also called Her2/neu.1234
HLA-DRB1*0101
  relative binding ratio: -0.0005 ratio (standard IC50 / test IC50)
HLA-DRB1*0401
  relative binding ratio: -0.0032 ratio (standard IC50 / test IC50)
HLA-DRB1*0701
  relative binding ratio: -0.0011 ratio (standard IC50 / test IC50)
